Laboratory results taken from PMC11189558, “Mutations found in cancer patients compromise DNA binding of the winged helix protein STK19”.

Experiments:
Assay in all cases: EMSA; 20 mM HEPES pH 7.4, 100 mM NaCl, 1 mM MgCl2, 1 mg/ml BSA, 2 mM DTT, 5% glycerol; 30 min on ice; native 5% PAGE in 1X TBE
Conditions in all cases: protein: recombinant; tags: GST cleaved; GPLGS left at N-terminus; blunt
STK19 K186E = STK19 K186E (human, UniProt P49842 31-254, K186E)
STK19 R200E/K201E/K203E = STK19 R200E/K201E/K203E (human, UniProt P49842 31-254, R200E;K201E;K203E)
Chain of STK19 R200E/K201E/K203E (P49842 31-254 R200E/K201E/K203E): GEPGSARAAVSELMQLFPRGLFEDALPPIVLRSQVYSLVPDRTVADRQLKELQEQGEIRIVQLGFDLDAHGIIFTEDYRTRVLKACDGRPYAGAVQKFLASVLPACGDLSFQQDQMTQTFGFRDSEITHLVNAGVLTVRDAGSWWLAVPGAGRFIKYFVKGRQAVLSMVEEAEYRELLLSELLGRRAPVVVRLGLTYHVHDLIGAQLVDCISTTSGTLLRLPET

STK19 R215E/R216E = STK19 R215E/R216E (human, UniProt P49842 31-254, R215E;R216E)
Chain of STK19 R215E/R216E (P49842 31-254 R215E/R216E): as the sequence (P49842 31-254 R200E/K201E/K203E) above, with E170R, E171K, E173K, R185E, R186E counted along it

Measured: binding result

Chain of STK19 K186E (P49842 31-254 K186E): as the sequence (P49842 31-254 R200E/K201E/K203E) above, with K156E, E170R, E171K, E173K counted along it

B1: 59 bp dsDNA (dsDNA)
DNA 1: GAGCTGCCGAATTCTACCAGTGCCTTGCTAGGACATCTTTGCCCACCTGCAGGTTCACC
DNA 2: GGTGAACCTGCAGGTGGGCAAAGATGTCCTAGCAAGGCACTGGTAGAATTCGGCAGCTC
no binding: all assays above
